The record followed here is IntAct's records for PubMed 38890443.

The labels stand for the following.
B1: E3 ubiquitin-protein ligase RNF26 (Homo sapiens), Q9BY78 (parent)
chain: MEAVYLVVNGLGLVLDVLTLVLDLNFLLVSSLLASLAWLLAFVYNLPHTVLTSLLHLGRGVLLSLLALIEAVVRFTCGGLQALCTLLYSCCSGLESLKLLGHLASHGALRSREILHRGVLNVVSSGHALLRQACDICAIAMSLVAYVINSLVNICLIGTQNLFSLVLALWDAVTGPLWRMTDVVAAFLAHISSSAVAMAILLWTPCQLALELLASAARLLASFVLVNLTGLVLLACVLAVTVTVLHPDFTLRLATQALSQLHARPSYHRLREDVMRLSRLALGSEAWRRVWSRSLQLASWPNRGGAPGAPQGDPMRVFSVRTRRQDTLPEAGRRSEAEEEEARTIRVTPVRGRERLNEEEPPGGQDPWKLLKEQEERKKCVICQDQSKTVLLLPCRHLCLCQACTEILMRHPVYHRNCPLCRRGILQTLNVYL
partner: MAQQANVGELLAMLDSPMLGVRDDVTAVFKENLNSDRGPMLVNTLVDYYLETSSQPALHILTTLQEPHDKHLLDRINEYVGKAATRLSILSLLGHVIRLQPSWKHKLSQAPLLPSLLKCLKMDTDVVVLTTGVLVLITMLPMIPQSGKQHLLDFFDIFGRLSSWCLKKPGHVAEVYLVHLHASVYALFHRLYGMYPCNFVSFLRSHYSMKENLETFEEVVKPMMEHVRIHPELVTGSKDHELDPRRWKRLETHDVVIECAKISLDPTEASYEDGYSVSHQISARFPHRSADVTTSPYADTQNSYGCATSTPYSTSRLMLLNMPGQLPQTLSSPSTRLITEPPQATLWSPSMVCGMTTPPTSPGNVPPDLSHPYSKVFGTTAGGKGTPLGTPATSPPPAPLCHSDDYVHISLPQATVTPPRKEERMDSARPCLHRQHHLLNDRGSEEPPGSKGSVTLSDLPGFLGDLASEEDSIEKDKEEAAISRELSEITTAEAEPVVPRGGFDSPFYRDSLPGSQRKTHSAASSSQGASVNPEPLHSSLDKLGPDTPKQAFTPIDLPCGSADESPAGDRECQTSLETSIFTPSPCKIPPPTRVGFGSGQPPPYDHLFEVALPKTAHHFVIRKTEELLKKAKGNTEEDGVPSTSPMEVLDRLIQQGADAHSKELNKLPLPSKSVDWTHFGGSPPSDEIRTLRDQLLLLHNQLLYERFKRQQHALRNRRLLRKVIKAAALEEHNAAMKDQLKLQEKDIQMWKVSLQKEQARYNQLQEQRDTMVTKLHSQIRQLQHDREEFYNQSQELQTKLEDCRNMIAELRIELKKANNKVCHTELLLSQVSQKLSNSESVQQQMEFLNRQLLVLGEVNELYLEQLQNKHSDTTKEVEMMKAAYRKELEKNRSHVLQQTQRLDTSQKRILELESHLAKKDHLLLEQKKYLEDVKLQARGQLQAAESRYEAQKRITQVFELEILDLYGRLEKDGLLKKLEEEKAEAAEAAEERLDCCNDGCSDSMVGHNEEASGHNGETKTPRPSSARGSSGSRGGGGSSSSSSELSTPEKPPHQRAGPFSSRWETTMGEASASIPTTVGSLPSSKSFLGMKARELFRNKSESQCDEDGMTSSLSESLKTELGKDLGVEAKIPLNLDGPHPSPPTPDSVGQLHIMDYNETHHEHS

One test covers variants of B1. As to conditions: with tsc1_human TSC1, Q92574.
For the variant T348A, the “effect of a mutation on the interaction” value was “decreasing interaction”.

Variants of B1 are the subject of another test. Particulars: with tsc1_human TSC1, Q92574. This is another data set of the same source.
As to T348D, the “effect of a mutation on the interaction” value is “increasing interaction”.
